Assay results reported in US20110307974A1.

T1: APC10 (AT2G18290) fused at its N-terminus with the traditional TAP tag or with the GS tag (Arabidopsis thaliana) (UniProt Q9ZPW2)
T1 sequence: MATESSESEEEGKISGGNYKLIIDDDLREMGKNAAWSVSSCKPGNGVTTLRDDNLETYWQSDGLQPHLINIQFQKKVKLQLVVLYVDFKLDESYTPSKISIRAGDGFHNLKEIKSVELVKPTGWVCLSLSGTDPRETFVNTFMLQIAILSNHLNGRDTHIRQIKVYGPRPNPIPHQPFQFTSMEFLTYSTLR

B1: SAMBA (AT1G32310) (protein)
chain: MNGASPAHSLVSTTAVAGGGGSSGAAAGLDDFHFPPDIPSMQERKDEAMRVLKADLMTELDKEVKSLEEDSWMFEGPRSRIHLISRRGNFLKKGGEVKLW

Target: T1, APC10 (AT2G18290) fused at its N-terminus with the traditional TAP tag or with the GS tag (Arabidopsis thaliana)
Test: TAP purification with tagged APC10 as bait from Arabidopsis cell suspension culture, MALDI-TOF/TOF MS identification

Question: “APC1 (AT5G05560) (from UniProt Q9FFF9 1-1678)” was tested. Which Found/6 exp (of 6 experiments) did it give?
Answer: The Found/6 exp (of 6 experiments) was 6.

Question: “APC2 (AT2G04660) (from UniProt Q8H1U5 1-865)” was tested. Which Found/6 exp (of 6 experiments) did it give?
Answer: Its Found/6 exp (of 6 experiments) is 3.

Question: “APC4 (AT4G21530) (from UniProt O65418 1-777)” was tested. Which Found/6 exp (of 6 experiments) did it give?
Answer: The Found/6 exp (of 6 experiments) was 6.

Question: With “APC5 (AT1G06590) (from UniProt Q8H1U4 1-916)” as the molecule, how does the Found/6 exp (of 6 experiments) read?
Answer: Its Found/6 exp (of 6 experiments) is 6.

Question: Which Found/6 exp (of 6 experiments) does the source give for “APC7 (AT2G39090) (from UniProt Q8VY89 1-558)” here?
Answer: Its Found/6 exp (of 6 experiments) is 6.

Question: “APC8 (AT3G48150) (from UniProt Q9STS3 1-579)” was tested. Which Found/6 exp (of 6 experiments) did it give?
Answer: Its Found/6 exp (of 6 experiments) is 6.

Question: With “CCS52B (AT5G13840) (from UniProt Q8LPL5 1-481)” as the molecule, how does the Found/6 exp (of 6 experiments) read?
Answer: The Found/6 exp (of 6 experiments) was 1.

Question: “CDC16 (AT1G78770) (from UniProt B3DNN5 1-543)” was tested. Which Found/6 exp (of 6 experiments) did it give?
Answer: The Found/6 exp (of 6 experiments) was 6.

Question: How did the Found/6 exp (of 6 experiments) turn out when “CDC27a (AT3G16320) (from UniProt Q06AN9 1-717)” was run?
Answer: Its Found/6 exp (of 6 experiments) is 4.

Question: How did the Found/6 exp (of 6 experiments) turn out when “CDC27b (AT2G20000) (from UniProt Q8LGU6 1-744)” was run?
Answer: The Found/6 exp (of 6 experiments) was 6.

Question: For “CDKA; 1 (AT3G48750) (from UniProt P24100 1-294) (enzyme)”, which Found/6 exp (of 6 experiments) is on record?
Answer: Its Found/6 exp (of 6 experiments) is 1.

Question: For “RNase L inhibitor protein, putative (AT4G19210) (from UniProt Q8LPJ4 1-605)”, which Found/6 exp (of 6 experiments) is on record?
Answer: Its Found/6 exp (of 6 experiments) is 2.

Question: For “UVI4 (AT2G42260) (from UniProt O48533 1-259)”, which Found/6 exp (of 6 experiments) is on record?
Answer: Its Found/6 exp (of 6 experiments) is 3.

Question: With “UVI4-like (AT3G57860) (from UniProt Q9M2R1 1-243)” as the molecule, how does the Found/6 exp (of 6 experiments) read?
Answer: Its Found/6 exp (of 6 experiments) is 2.

Question: “eukaryotic translation initiation factor 3 subunit 8 (AT3G56150) (from UniProt O49160 1-900)” was tested. Which Found/6 exp (of 6 experiments) did it give?
Answer: The Found/6 exp (of 6 experiments) was 1.

Question: “expressed protein (AT4G25550) (from UniProt Q8GXS3 1-200)” was tested. Which Found/6 exp (of 6 experiments) did it give?
Answer: The Found/6 exp (of 6 experiments) was 2.

Question: Which Found/6 exp (of 6 experiments) does the source give for “phosphoprotein-related (ELF8) (AT2G06210) (from UniProt B5X0I6 2-1091)” here?
Answer: Its Found/6 exp (of 6 experiments) is 1.

Question: For B1, which Found/6 exp (of 6 experiments) is on record?
Answer: The Found/6 exp (of 6 experiments) was 4.
